This note sets out measurements from JP2000236884A.

For this experiment, the target named is ヒトIL−18 (human interleukin-18, polypeptide having the amino acid sequence of SEQ ID NO 21) (human), Q14116. The experiment in a line: cell-based or functional assay. The conditions noted are these: scale: fold molar concentration against #125-2HmAb.

B1: scFv peptide with His6 of Example 2-2, encoded by pEscFv#125-2H.HT (SEQ ID NO 10) (scFv)
scFv: EIQLQQSGPELVKPGASVKVSCKASGYSFTDYFIYWVKQSHGKSLEWIGDIDPYNGDTSYNQKFRDKATLTVDQSSTTAFMHLNSLTSEDSAVYFCARGLRFWGQGTLVTVSAGGGGGGSGGGGSGGGGSDIQMTQSPSSLSASLGERVSLTCRASQDIGSKLYWLQQEPDGTFKRLIYATSSLDSGVPKRFSGSRSGSDYSLTISSLESEDFVDYYCLQYASSPYTFGGGTKLAIKHHHHHH
Consider B1, for which the molar concentration needed for the same IL-18 neutralisation as #125-2HmAb (IFN-γ induction in KG-1 cells) is 2.
